assay: soluble fraction after stress (log2 fold change); higher = more stays soluble; pooled small domains, quantitative proteomics; conditions: stress: pH 4
How it was run: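 With high-throughput quantitative proteomics, pooled custom libraries of small protein domains were measured after pH 4 stress. Each domain's soluble amount after the stress gives a fold change taken as aggregation propensity. Higher log2 values mean more of the domain stayed soluble.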

Row | Sequence | soluble fraction (log2)
1 | HMGVPVTAPMPGKVLKVTVSVGAAVKNGDLVLVLEAMKMENEIFATANGVVKEIRSREGDTVNSGDVMMVI | -1.35
2 | HMTVEMYIGKTANVLETVTENNGRIAIFGEEWQAKSLNGETIEKGAQAKIVKNDSIIMYVVPI | -0.367
3 | HMPASTSIPYSDFISRVESGDVQEAKIGESAITGTYKDGSQFKTVKPPTLDTNLMPTLIQNKVNVVGVEP | 0.0215
4 | HMLTTVAAQRAALHQEEDITKLREIILKLVPFWGLDGGAYADKETSIQLERQYRESFDQAVSAARRSGQA | -0.234
5 | HMTQEMPAEVKKKADAFNNAMDEENYTEAKAILAELEQNTAPSYPLLLQMQTRYAFETASWE | -0.974
6 | HMEPVTETVYAMDTVNIRAAADQTSEKIGSVTVGTALTRTGTDGDWSIIDYNGTTGYVKSEFLSNTAPEV | -0.22
7 | HMNVGKYILTLAAKEGYSQSDVARRTGISRQMLSYIIAGERKLTLPQALKIESLLSLKTGTLILMQDED | 0.219
8 | HMNLLSPREKQSLTLYASGLTLREVASELKLSPNSVGKFISRGKFKLNKSGAIVNSKTSIYLELKKRNLI | 0.108
9 | HMEIDMQEGIKTIILMMKEHNITPSEAMKIYKSANGDIHYISKIYNHFKNKGADNFVALMIKMVKPGEFIE | -0.398
10 | HMNPTSLTFRSNVKDGKVYVDGIFKGSSDLDFDLPKGRHSIRIEKDGYVPFAKTINLIKALVIDFNMEKA | 0.123
11 | HMHGSSSTVPPVKGLSFEQARLTLAENDLTVEISDSIYDRNARPGTVVESWPRAGSVVKQGRQVYVTVTAF | -0.685
12 | HMADTFVMPDLVYRRYEPVRGYFERGGFHMGAVKFEPYEGISDGTILRQNPLPGHPLRRRDVISLVVAAS | -0.464
13 | HMKSARDDILSALDKAGEPLSMKDIAELSGRKLSTLRAQMTRLVAEGAVQATAAAHSPDRKYRK | -0.133
14 | HMLQIADEYLDRLQALFEDVRDNHFAIGDLLVELVDMHDSRRVDVINYIAGRLAISPTTLYDYENTARR | -0.966
15 | HMEFLDLEIDVDATDGRLLAFLAAKGEVVSQTFNDTIITVRVRMPTGAMGQVHRSALAIRPA | -1.43
16 | HMTTVSINTTGIITASTIRASSALYPPLYTTVQRDAGTFSAGAIIFNSTTSKLEFYDGTTWQSLPG | 0.285
17 | HMRININNASARQIADALPGVGLKTARDIKDFQTTLSGERYTRLDQLHSIKRVDWDEIFKADLVRV | 0.158
18 | HMKNIRKQAIEAIDRIKNGNPIVISKNAKLIFKNIAKEANVSPTELHREFRDVMLYVNSLKAP | 0.271
19 | HMIDSVFASYRQVALDDELWDKVRNGAVLPKVELFEVMDGPVLFTYQSKIVAMYEPHPTKAGYIKPRKMFL | -1.52
20 | HMKSNIIPLSLKKPQRLDIFLTNYFVDLSRTQIKKMITDGNIKVNDLIAKPSLKLIGDEIIFYTLPK | -0.698
21 | HMSFGWETLEGKEGVTDTDLHPSGWVKVGDEKIFVVSQGEFLGKGTDIVVVSVDGNRVVVKELI | -1.11
22 | HMRQSSLRTRELLIDAARQLFARFGVEKTTMNDIAEASKRGRRTVYMYFNSKSDVFYAVVGRE | -0.116
23 | HMTVPNVVGQRILAAQDILKNLGLKVLVDTNLPNSQWGLRNVKSTNPGAGAVVRVGDTVTLIAR | 0.124
24 | HMIRQETYLLVRKAVGALPVQMRKIIELAMQGKKNAEIAAQLSISEGTVHTLKKTAYKKLRDRLQE | -0.32
25 | HMSQLTVGTVVTGNASLQTQGLKLPSFASGSRPASPNIGQMIWNSSDAKAQIWNGSEWDDVG | ≥ 0.43
26 | HMSEHKFIVPEEFNLKRLDQTVAAQFEKISRTKISKIIKSSLLKVNDKVVTDQSIKIKQDDVITFTEIKDQ | 0.237

Row | Sequence | soluble fraction (log2)
27 | HMSGIGTTIKMLRENKNISQEELGNVLGVSDKTISSWEINRTEPKMGIVQLLADYFGVSTDYLIKG | -0.201
28 | HMNSLPFSNFMNEVEAGRVVEVKIQGNNISGVLANGKTFSTYSPNYPELVEKLSSNGVSIVATPQ | -0.0501
29 | HMESAVDVFRSILKEKGVTEEEVRQVVAARGKYTLETPIDDYPNEFLYGYVIRYWDQIFDIIQQSREAK | -1.57
30 | HMRMLLKELLIQYEVKNDKSHVEVAKEVGVSLSTYYRWLNGESLHLKKRTIDRLSEVLHYDINQVVEES | 0.0267
31 | HMESRLQAAIALRKAGEHEQSREALKILADEPALRAQALLNIAWSFDNQGHERDAEGYYLAAIE | 0.127
32 | HMTDVIADMLTRIRNAASSKHQTVDIPSSNLKKEIAKILLEEGYIRDFIEIDDKKQGIIRITL | -0.617
33 | HMENMETSDIVARYSNMPGGIIEAFHEIVDRHGFLSQEAIIEAARGFGISVAEAYGVATFYSMFS | -0.42
34 | HMLNDTGAIRAAVEEVLAANEKSVNEYKGGKTQAFQYLIGQSMRALRGKAPAQEVTKLLKELLG | -0.0483
35 | HMQGQVLQETARKARSQLDSEIPGFNDALYQNLIKSSENYGYKAEEVAQWVDPRAIKVLNDAYQFQQLKAG | -0.25
36 | HMTRVANIPYSEFLKLVETDKINDVSMVGKTISGHLDDGTKFSTYTPPNDPNLIDKLSKHNVIIKAGPE | 0.0499
37 | HMGMYFTEMRKNEGLIALNGVAESNKRVSDLMDNLKDSSSFDAADIKAVKSGSGDASSLMDFELLVT | -0.452
38 | HMAFAQMAQEAAKGKDDFNDLRQEMEAVIKEQPHILLMAQFGQNPYEIAYQEAKRRKAQDQQQQQ | -0.805
39 | HMNETTVPDVINQNISTGKIIIEDADLEYRIQYIPSEKSSSIGTIINSIPIYGKRVKSGTIVDLKVLG | -0.34
40 | HMATARPPPPPESRVEVLFDGRWYAGTVVGGALDEHRATVFFDADRLSQVINFAETGIRVLGT | -0.575
41 | HMTQRRLQSELDSIPGVGAGTRTKLLRTLGSVDAVLRASEAELLAAGANRRQVASIQAHAAAVER | 0.0567
42 | HMQQIEIEEPITVKNLSAVAGLKASEIIAKLMKLGVMSTINQVMERQHAEEIAGEYGFELVVK | -0.154
43 | HMPLDYQELRNISPQAARQAILQILKANKGNVSQTARMLGITRKTVYKAMAKREAGNLDDGSRAPK | 0.265
44 | HMRRSSQQLTLTEVSTIKEMVTSEEYRHVPTGTLALLAQRLRKVFASSSTWYRLVRIYKWRRPRGRIH | 0.296
45 | HMTHAISKTYAVTGEQLKNGFTLTHTFANGSTRRVDVYPGSRSGKVIAVRNTTDDTTEWIRIVEG | -0.0152
46 | HMGKASNEVYEVISSKIRTGEWAPGYKLPSEPTLAEEFGVSRATVREALQELISRGRIKREQGRGTYVLH | -0.118
47 | HMPETAQLTDIQVSRSQAHTGIFSLHYYLTGTDSRGERVRLEISGDDYTRLSGSSSVTVEYYRHTGRIVRY | -0.552
48 | HMYGVAEFDEKGNVLSIEEKPVQPKSNYAVVGLYFYPNKVVGVASGIKPSARGELEITTVNQTFLRDEELK | 0.0152
49 | HMKKLTNKQIIFFAEKLAHHSDFASKYSKVGESYEEFAIRLEKELNTPQKVEFYSSYLEKVGFK | -0.78
50 | HMSRQDYLQTIYRLSVGKGYTTNKKIADFLSVSKPSVTEMIGKLQGEGLVAMDGAHIFLTEDGAEQ | 0.108
51 | HMGLNELQVKLNEAMQRLSLKHRTVVVMHDIEGIPHDEIAKIVGVSVGTIRSRLFYARRQLQADLGEY | -0.896
52 | HMGLSARIAQRIHGLRTAQRMSLEALAARSGVSRSMISLIERNEASPTAVVLEKIATGLNVVLAALFDTP | -0.324

Row | Sequence | soluble fraction (log2)
53 | HMQQSVSSLVRRYMLQTIPGINFSLKSTALALNMSDRTLQRKLLSENTSYQIILDDVRKELAIKYLKE | -0.43
54 | HMPSQLPLAFARRHGVLLRGFSNGLAQLTVRPEVSTLSLAETRRHLGVPLALEKVTTERFDQLLREAYEA | -0.152
55 | HMKNEYAMVIQVNGKLRGNMLVSADLEQKDIERMALDNEDIKRFISHENDVKKMIFVPKKLINIVT | ≥ 0.43
56 | HMNVWGLSERELEATRLLIEGFSSKEASARMGISPSTVRSLWGRARAKMGVDSIEDARELVA | -0.273
57 | HMATRLPFGFAKRFGVLVEGKDDQITVYHKDGLQTAVILEIQRYLARPFRFEAVTPEEFERRLGLAYQS | -0.927
58 | HMKNEQIFIVRPDAEGTRLDQWLAAQMASSEEAPSRMQIQRWIKAGLVEGQGTLNPARRIEAGESYTVKPG | 0.203
59 | HMAFRIGGFVQEGSVVRQQDGGTVRFEVTDTAHSVPVTYKGSLPDLFKEGKGVVAQGKLMNGTFVADQVLA | -0.186
60 | HMGNYRVIKWGMQGDDVKLMQQMLINRGYVLSATGKYASRTLKAIMAFQEANGLKADGIVGKRTWNKLL | -0.134
61 | HMDDVGERIRKIREEKNLSLDEISKMTGFDVEFLAKIENKERQPQLGTVIKLSKALDSAFGRL | -0.0445
62 | HMTGIQDVPALETRRVGNTFFFDRATDVQVYDLQGRLLQQARKVTSVSIGHLQQGVYVLTDGRASVKVQ | -0.7
63 | HMEYYIMPVANLHKVVVDGKDMSNLISNNAIAVKANVIDEGQIQIKPGEIIITTPAGVSPEEAVRSP | -0.135
64 | HMYDESVFTGEYHYYYEKLSDDDKLIYRQIYAMMQKRMDGISLNTTDTDNVSRIQQFVLLDNPQF | -2.43
65 | HMDTRSSARKALDAVNLLLETYGAKAYQHSYEIAGRRQQFQTPGDFMAFRSRLMAEVATEENAARINA | ≥ 0.43
66 | HMPVSTLLGDNLRRLRTAKGYTQEAVADAARISVAAYRNYETGRAIPKVNTLLAIARALGVSLNDLVTE | -0.00358
67 | HMYSQEEKRYMEIMEIKPQELSAENLKKQYKKLVKKYHPDLHQDDKQAAEEKFKQLTNAYQVLMRRF | -0.0526
68 | HMLAEEAFNKQAATAGYVYRDGSYHPAASVAQYDAMPRNYRTNTMAQELSRSQVESQLQQSQ | -0.104
69 | HMVVVPDVKGLKIEEAAEFFKNNNLHYNVIDSVFSKDVEPGAIVELSPLAGSKVKEGRIVFITVNALTS | -0.681
70 | HMHGESISVPDLRGQKMERMPAFLADKHLQFKVIDSLFDLEKNPGTVLEQDPAPNSKVKEGRTIYLTVNAQ | -0.118
71 | HMGPSSIVVYVSGAVKTPGVYTLAPGSRVDDAVRAAGGLSERAESAGTNLAAQLSDGEHVHVAAAGE | -0.159
72 | HMFEYDEIMEQSVPKIAWGSLLTIMKKASSHKEMLWYINETYKNGWSRSMVLNQIAMASYERSLIE | -0.918
73 | HMYPMQNYSTIIGVIELRQQSVGYATTQKRYGIGSSTVTLIMKRFKELGLTLEELRAMPPKAVEVAFYPPE | 0.246
74 | HMTEELLNQRKETMLALLNDPTYVPMKLKELAMLLNLSRDQRDELREVMESLEQDGKVILTKRGKYKIP | -0.255
75 | HMGESYGPVRRGETLWSIAEKVKPAGVSTQKELAAIYAANPQAFIRGDINLLKAGAELRLPSPEAL | -0.0107
76 | HMNLSAREWTSADGSRTFQGELTGFQDGKVKVRRSDGKSLVFAIELLSESDQQFIKTNQLVIAKKDED | -0.752

Source: the domain aggregation screens of Martell et al. (2025)
